In patent publication US20240209456, “METHODS AND COMPOSITIONS RELATED TO CELL-CYCLE RNA's” (BETH ISRAEL DEACONESS MEDICAL CENTER, published 2024):

Legend:
[1] = target: T1, H2A.Z N-terminal peptide; assay: EMSA; peptide 1 uM-10 mM, glutaraldehyde crosslink; conditions: protein: synthetic; tags: synthetic peptide, AnaSpec; label: 5'-32P; predicted stem-loop
T1 chain: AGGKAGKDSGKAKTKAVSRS
Method: (§1) Indeed, mutation of RM9A abolishing the predicted stem-loop structure, did change the strength and the mobility of the RNA-TIP60 complexes (Mut RM9A; FIG. 3E, lane 5).
(§2) RNA oligonucleotides (15 pmol) were end-labeled with [γ-³²P] ATP (Perkin Elmer) and T4 polynucleotide kinase (New England Biolabs). Reactions were incubated at 37° C. for 1 h and then passed through G-25 spin columns (GE Healthcare) according to the manufacturer's instructions to remove unincorporated radioactivity. Labeled samples were gel-purified on 10% polyacrylamide gels. Binding reactions were carried out in 10 μL volumes in the following buffer: 5 mM Tris pH 7.4, 5 mM MgCl₂, 1 mM DTT, 3% v/v glycerol, 100 mM NaCl. 5 μg of full length purified H2A.Z (Abcam) and TIP60 (SignalChem) proteins were incubated with 1.1 nM of ³²P-labeled ss RNAs. All reactions were assembled on ice and then incubated at room temperature for 30 min. Samples were loaded onto 6% native polyacrylamide gels (0.5×TBE) at 4° C. for 3 h at 140 V. Various concentrations (1 μM-10 mM) of H2A.Z and K7 acetylated H2A.Z peptides (AnaSpec) were incubated with a fixed amount of probe in 50 mM Tris-HCl pH 7.5, 100 mM NaCl, 0.4 mM EDTA, and 40 U/ml RNasin, 1 mM DTT, 50% glycerol in a final volume of 10 μL. Thereafter, 1 μl glutaraldehyde (0.2% final concentration) was added into the mixture and incubated at room temperature for 15 minutes. […]

[2] = target: T2, TIP60 (KAT5), full length (UniProt Q92993 Q92993:1-513); assay: EMSA; 5 mM Tris pH 7.4, 5 mM MgCl2, 100 mM NaCl, RT; conditions: tags: SignalChem; label: 5'-32P; predicted stem-loop
T2 sequence (Q92993 whole entry, one chain of several): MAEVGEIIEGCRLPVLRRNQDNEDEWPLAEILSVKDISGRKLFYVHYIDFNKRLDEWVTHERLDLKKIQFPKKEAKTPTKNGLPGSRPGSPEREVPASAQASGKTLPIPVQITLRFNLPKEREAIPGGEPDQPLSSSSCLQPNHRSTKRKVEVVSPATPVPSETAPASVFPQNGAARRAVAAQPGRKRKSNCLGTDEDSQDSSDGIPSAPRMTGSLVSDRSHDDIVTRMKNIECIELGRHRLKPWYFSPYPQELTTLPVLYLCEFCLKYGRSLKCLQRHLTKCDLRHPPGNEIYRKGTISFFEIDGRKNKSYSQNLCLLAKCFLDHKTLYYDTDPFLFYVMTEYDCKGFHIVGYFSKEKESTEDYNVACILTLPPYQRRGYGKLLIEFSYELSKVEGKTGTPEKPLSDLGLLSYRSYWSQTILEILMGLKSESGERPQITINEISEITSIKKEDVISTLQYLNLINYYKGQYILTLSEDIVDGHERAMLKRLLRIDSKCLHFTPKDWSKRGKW
Method: as §1, §2

[3] = target: T3, Histone H2A.Z, full length (UniProt P0C0S5 P0C0S5:2-128); assay: as above; conditions: tags: Abcam; label: 5'-32P; predicted stem-loop
Method: as §1, §2

[4] = target: T4, acH2A.Z N-terminal peptide (K7 acetylated); assay: EMSA; K7 acetylation did not abrogate binding; glutaraldehyde crosslink; conditions: protein: synthetic, tags: synthetic peptide, AnaSpec, label: 5'-32P, predicted stem-loop
T4 chain: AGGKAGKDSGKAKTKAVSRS
Method: as §1, §2

[5] = target: T2, TIP60 (KAT5), full length; assay: EMSA; no detectable RNP; conditions: tags: SignalChem; label: 5'-32P
Method: as §1
(§3) RNA oligonucleotides (15 pmol) were end-labeled with [γ-³²P] ATP (Perkin Elmer) and T4 polynucleotide kinase (New England Biolabs). Reactions were incubated at 37° C. for 1 h and then passed through G-25 spin columns (GE Healthcare) according to the manufacturer's instructions to remove unincorporated radioactivity. Labeled samples were gel-purified on 10% polyacrylamide gels. Binding reactions were carried out in 10 μL volumes in the following buffer: 5 mM Tris pH 7.4, 5 mM MgCl₂, 1 mM DTT, 3% v/v glycerol, 100 mM NaCl. 5 μg of full length purified H2A.Z (Abcam) and TIP60 (SignalChem) proteins were incubated with 1.1 nM of ³²P-labeled ss RNAs. All reactions were assembled on ice and then incubated at room temperature for 30 min. Samples were loaded onto 6% native polyacrylamide gels (0.5×TBE) at 4° C. for 3 h at 140 V. Various concentrations (1 μM-10 mM) of H2A.Z and K7 acetylated H2A.Z peptides (AnaSpec) were incubated with a fixed amount of probe in 50 mM Tris-HCl pH 7.5, 100 mM NaCl, 0.4 mM EDTA, and 40 U/ml RNasin, 1 mM DTT, 50% glycerol in a final volume of 10 μL. Thereafter, 1 μl glutaraldehyde (0.2% final concentration) was added into the mixture and incubated at room temperature for 15 minutes. Samples were loaded onto 10% native polyacrylamide gels (0.5×TBE) at 4° C. for 3 h at 170 V. All gels were dried upon fixation with Methanol and Acetic Acid and exposed to X-ray film.

[6] = target: T3, Histone H2A.Z, full length; assay: EMSA; no detectable RNP; conditions: tags: Abcam; label: 5'-32P
Method: as §1, §3

B1: RM9A (ssRNA)
RNA: GGCGUGGCGGUGGGCGCGCAGU
binding result [1]: binds
binding result [2]: binds
binding result [3]: binds
binding result [4]: binds

B2: UR3 (ssRNA)
RNA: GCCCUUUCCCCAGCCUUAGCGA
binding result [5]: no binding
binding result [6]: no binding

B3: UR1 (ssRNA)
RNA: GCGCCCUGCAGCCUGGUACGCG
binding result [5]: no binding
binding result [6]: no binding

B4: UR2 (ssRNA)
RNA: CUUUCCUCCACUCUCCCUGGGA
binding result [5]: no binding
binding result [6]: no binding
